Test results from patent publication US20220089784A1 (University of California, published 2022).

Tests used:
Test in all cases: yeast scFv FACS
[1] = target: BoNT/A light chain (recombinant) (Clostridium botulinum, UniProt P0DPI0 1-448)
[2] = target: BoNT/A1 holotoxin (Hall hyper) (Clostridium botulinum, UniProt P0DPI0 2-1296)
[3] = target: BoNT/A2 holotoxin (FRI-H1A2) (Clostridium botulinum, UniProt Q45894 2-1296)
[4] = target: T1, BoNT/B light chain (recombinant) (Clostridium botulinum, UniProt P10844 1-441)
T1 sequence: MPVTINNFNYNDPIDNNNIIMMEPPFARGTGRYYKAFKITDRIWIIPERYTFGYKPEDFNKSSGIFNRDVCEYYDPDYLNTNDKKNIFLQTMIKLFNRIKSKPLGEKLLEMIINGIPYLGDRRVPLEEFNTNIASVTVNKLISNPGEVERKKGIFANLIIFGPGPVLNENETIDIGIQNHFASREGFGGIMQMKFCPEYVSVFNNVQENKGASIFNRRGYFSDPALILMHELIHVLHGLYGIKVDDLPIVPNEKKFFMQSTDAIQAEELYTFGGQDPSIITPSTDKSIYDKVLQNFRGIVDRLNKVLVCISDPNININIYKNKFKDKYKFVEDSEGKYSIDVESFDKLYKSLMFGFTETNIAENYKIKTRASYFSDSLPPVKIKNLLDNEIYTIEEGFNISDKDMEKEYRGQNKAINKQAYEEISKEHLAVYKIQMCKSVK

[5] = target: T2, BoNT/F1 (proteolytic BoNT/F) (Clostridium botulinum, UniProt A7GBG3 1-1278)
T2 sequence: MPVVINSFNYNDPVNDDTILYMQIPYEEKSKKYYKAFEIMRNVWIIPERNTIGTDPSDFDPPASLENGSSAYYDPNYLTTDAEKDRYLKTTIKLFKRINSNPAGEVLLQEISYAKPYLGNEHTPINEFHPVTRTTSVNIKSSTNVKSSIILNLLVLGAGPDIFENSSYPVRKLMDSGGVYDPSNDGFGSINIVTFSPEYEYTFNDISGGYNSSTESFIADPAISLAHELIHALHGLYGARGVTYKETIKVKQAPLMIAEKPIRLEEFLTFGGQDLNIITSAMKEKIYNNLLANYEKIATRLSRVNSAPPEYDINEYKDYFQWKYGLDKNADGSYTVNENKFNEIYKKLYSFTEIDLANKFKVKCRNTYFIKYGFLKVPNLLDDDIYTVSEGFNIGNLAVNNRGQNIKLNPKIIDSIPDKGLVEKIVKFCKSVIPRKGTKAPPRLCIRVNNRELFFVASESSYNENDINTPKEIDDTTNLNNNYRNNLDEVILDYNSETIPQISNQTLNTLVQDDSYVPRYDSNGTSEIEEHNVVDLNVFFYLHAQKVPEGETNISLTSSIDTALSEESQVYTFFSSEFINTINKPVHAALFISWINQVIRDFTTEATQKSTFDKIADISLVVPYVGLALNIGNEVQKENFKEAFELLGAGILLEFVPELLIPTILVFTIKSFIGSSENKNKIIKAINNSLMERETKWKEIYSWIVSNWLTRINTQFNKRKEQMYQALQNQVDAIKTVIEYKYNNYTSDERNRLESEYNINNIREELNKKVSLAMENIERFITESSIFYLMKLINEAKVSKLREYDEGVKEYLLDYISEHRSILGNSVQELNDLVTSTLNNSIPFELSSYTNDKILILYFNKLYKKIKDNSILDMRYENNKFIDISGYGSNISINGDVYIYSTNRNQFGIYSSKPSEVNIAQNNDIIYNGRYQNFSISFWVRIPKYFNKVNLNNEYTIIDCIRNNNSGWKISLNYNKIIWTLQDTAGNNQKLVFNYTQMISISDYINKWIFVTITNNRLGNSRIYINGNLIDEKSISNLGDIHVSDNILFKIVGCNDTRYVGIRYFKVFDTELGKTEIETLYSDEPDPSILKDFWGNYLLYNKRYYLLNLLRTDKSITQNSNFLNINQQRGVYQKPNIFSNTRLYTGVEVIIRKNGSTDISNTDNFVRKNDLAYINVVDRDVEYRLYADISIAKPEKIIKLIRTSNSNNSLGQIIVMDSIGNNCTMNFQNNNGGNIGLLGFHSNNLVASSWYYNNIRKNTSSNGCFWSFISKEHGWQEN

BoNT/A2 holotoxin (FRI-H1A2), sequence (Q45894 2-1296): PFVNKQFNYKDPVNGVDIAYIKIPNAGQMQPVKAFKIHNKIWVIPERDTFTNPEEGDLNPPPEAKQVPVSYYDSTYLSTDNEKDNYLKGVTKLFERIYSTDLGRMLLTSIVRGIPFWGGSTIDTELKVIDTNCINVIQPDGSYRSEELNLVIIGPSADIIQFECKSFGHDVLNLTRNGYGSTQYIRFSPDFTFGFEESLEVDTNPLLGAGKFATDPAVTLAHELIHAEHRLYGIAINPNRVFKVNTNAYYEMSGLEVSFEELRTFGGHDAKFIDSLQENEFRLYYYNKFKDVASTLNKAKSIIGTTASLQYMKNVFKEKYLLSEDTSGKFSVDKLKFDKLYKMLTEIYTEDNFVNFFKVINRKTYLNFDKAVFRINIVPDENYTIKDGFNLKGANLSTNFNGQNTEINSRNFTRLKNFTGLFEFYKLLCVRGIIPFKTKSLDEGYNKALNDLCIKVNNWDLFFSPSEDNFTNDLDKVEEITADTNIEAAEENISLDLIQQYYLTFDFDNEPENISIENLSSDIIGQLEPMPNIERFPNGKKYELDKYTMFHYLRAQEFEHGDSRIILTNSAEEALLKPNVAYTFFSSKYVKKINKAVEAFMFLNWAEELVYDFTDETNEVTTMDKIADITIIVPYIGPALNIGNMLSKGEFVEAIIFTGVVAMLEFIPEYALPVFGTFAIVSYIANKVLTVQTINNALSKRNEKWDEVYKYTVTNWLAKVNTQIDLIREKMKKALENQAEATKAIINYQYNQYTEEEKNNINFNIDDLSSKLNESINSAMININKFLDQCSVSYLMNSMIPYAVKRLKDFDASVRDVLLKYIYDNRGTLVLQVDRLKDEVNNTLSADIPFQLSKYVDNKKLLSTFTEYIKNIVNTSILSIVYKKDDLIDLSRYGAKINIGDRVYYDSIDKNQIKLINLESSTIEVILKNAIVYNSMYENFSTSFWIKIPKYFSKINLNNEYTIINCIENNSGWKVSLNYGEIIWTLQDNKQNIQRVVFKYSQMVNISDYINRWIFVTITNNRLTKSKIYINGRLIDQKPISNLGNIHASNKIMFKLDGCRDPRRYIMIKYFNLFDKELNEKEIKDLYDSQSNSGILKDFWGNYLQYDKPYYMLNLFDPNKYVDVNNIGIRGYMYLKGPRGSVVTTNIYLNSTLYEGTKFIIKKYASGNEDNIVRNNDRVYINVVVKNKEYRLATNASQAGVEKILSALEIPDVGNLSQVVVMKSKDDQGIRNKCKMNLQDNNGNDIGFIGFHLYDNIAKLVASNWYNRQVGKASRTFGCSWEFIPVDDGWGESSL

B1: 1C7 scFv (scFv)
scFv: EVQLQQSGAELVRPGASVKMSCKASGYTFTSYNMHWVKQTPRQGLEWIGAIYPGNGDTSYNQKFKGKATLTVDKSSSTAYMQLSSLTSEDSAVYFCARTAGFYFDYWGQGTTLTVSSVDLKSGGSTSGSGKPGSGEGSSGSARDIVMTQSPAIMSASPGEKVTMTCSASSSVSYMYWYQQKPGSSPRLLIYYTSNLAPGVPARFSGSGSGNSYSLTISSMEGEDAATYYCQQFTSSPYTFGGGTKLEIK
notes: mouse
- Kd [1]: 35.3 nM
- binding result [2]: no binding
- binding result [3]: no binding

B2: 31E2 scFv (scFv)
scFv: EVKLVESGAELVRPGASVKLSCTASGFNIKDDYVHWVKQRPEQGLEWIGRIDPEDGETKYAPKFQGKATITADTSSNTAYLQLSSLTSEDTAVYYCALWSNWYFDVWGAGTTVTVSSVDLKSGGSTSGSGKPGSGEGSSGSAREIVLTQSPAIMSASPGEKVTMTCRASSSVSYMHWYQQKPGSSPKPWIYATSNLASGVPARFSGSGSGTSYSLTISRVEAEDAATYYCQQWTSNPPTFGGGTKLEIK
notes: mouse
- Kd [4]: 17.1 nM

B3: 31E2.20 scFv (scFv)
scFv: EVKLVESGAELVRPGASVKLSCTASGFNIKDDYVHWVKQRPEQGLEWIGRIDPEDGETKYAPKFQGKATITADTSSNTAYLQLSSLTSEDTAVYYCALWSNWYFDVWGAGTTVTVSAVDLKSGGSTSGSGKPGSGEGSSGSAREIVLTQSPEILSASPGEKVTMTCRASSSVSYMHWYQQKPGSSPKPWIYATSNLASGVPARFSGSGSGTSYSLTISSMEAEDAATYYCQQFHNYPPTFGAGTKLELK
notes: mouse
- Kd [4]: 1.96 nM

B4: 31A5 scFv (scFv)
scFv: DVQLQESGPELVKPGASVKISCKASGYSFTDYNMNWVKQSNGKSLEWIGVINPNYGTTSYNQKFKGKATLTVDQSSSTAYMQLNSLTSEDSAVYYCARSGGTGYYFDYWGQGTTLTVSSVDLKSGGSTSGSGKPGSGEGSSGSARQIVLTQSPAILSASPGEKVTMTCRASSSVSYMHWYQQKPGSSPKAWIYATSNLASGVPARFSGSGSGTSYSLTISRVEAEDAATYYCQQWSSYPPTFGSGTKLEIK
notes: mouse
- Kd [4]: 9.31 nM

B5: 31A5.1 scFv (scFv)
scFv: DVQLQESGPELVKPGASVKISCKASGYSFTDYNMNWVKQSNGKSLEWIGVINPNYGTTSYNQKFKGKATLTVDQSSSTAYMQLNSLTSEDSAVYYCARSGGTGYYFDYWGQGTTLTVSSVDLKSGGSTSGSGKPGSGEGSSGSARQIVLTQSPAILSASPGEKVAMTCRASSSVSYMHWYQQKPGSSPKLLIYDTSNLASGVPVRFSGSGSGTSYSLTISRMEAEDAATYYCQQWSSYPPTFGGGTKLEIK
notes: mouse
- Kd [4]: 1.75 nM

B6: 34E8B12 scFv (scFv)
scFv: QVQLVESGPDLVKPSQSLSLTCTVTGYSITSGYSWHWIRQFPGNKLEWMGYIHYSGSTNYNPSLKSRISITRDTSKNQFFLQLNSVTTEDTATYYCAVYYDYDGDYFDYWGQGTTLTVSSVDLKSGGSTSGSGKPGSGEGSSGSARDVVMTQSPAIMSASPGEKVTMTCSASSSVSYMYWFQQKPGSSPKPWIYRTSNLAPGVPARFSGSGSGTSYSLTISSMEAEDAATYYCQQWSSNPPWTFGGGTKLEIK
notes: mouse
- Kd [4]: 2.44 nM

B7: 31G2 scFv (scFv)
scFv: QVQLQQSGAELVKPGASVKLSCTASGFNIKDTYMHWVKQRPEQGLEWIGRIDPEDGETKYAPKFQGKATITADTSSNTAYLQLSSLTSEDTAVYYCARWLLYYYAMDYWGQGTSVTVSAVDLKSGGSTSGSGKPGSGEGSSGSARQIVLTQSPALMAASPGEKVTITCSVSSSISSSNLHWYQQKSETSPKPWIYGTSNLASGVPARFSGSGSGTSYSLTISRVEAEDAATYYCHQRSSYPLTFGAGTKLEIK
notes: mouse
- Kd [4]: 3.34 nM

B8: 38D11 scFv (scFv, V domains shown)
VH: QVQLQESGGGVVQPGRSLRLSCAASGFTFSSYGMHWVRQAPGKGLEWVAVIWYDGSNKYYADSVKGRFTISRDNSKNTLYLQMNSLRAEDTAVYYCARDKGWELMTNTDAFDIWGQGTLVTVSS
VL: not shown
- Kd [5]: 29.1 nM

B9: 31H3 scFv (scFv)
scFv: EVQLQQSGAELVRPGASVKMSCKASGYPFTIYWITWVKQRPGQGLEWIGEIYPGSGFTKYNEKFRSKATLTVDTSSSTAYMQLSSLTSEDSAVYYCALYGSNFDYWGQGTTLTVSSVDLKSGGSTSGSGKPGSGEGSSGSARDIVMTQSPAIMSASPGEKVTMPCSASSSVSYMHWYQQKPGTSPKRWIYDTSKLASGVPARFSGSGSGTSYSLTISRVEAEDAATYYCQQWSSHPPTFGAGTRLEIK
notes: mouse
- Kd [4]: 1.28 nM

B10: 37B4 scFv (scFv, V domains shown)
VH: QVQLVQSGAEVKKPGSSVKVSCKASGGTFSSYAISWVRQAPGQGLEWMGGIIPIFGTANYAQKFQGRVTITTDTSTSTAYMELRSLRSDDTAVYYCARDEDYYDSSGYYDYWGQGTLVTVSS
VL: QTVVTQEPSLTVAPGGTVTLTCGSSAGAVTTDHYPSWFQKKPGQAPTTIIYDTTNKHSMTPGPARFSGSLLGGKAALTLSGAQPEDEAEYYCFLSYRGSRPVFGGGTKVTVL
- Kd [5]: 10.1 nM

B11: 18F2 scFv (scFv)
scFv: EVQLQQSGPELMKPGASVKISCKASGYAFSRSWMNWVKQRPGKGLEWIGRIYPGDGDTNYNGKFKDKASLTADTSSSTAYMQLSSLTSEDSAVYFCTKSEGYYHNLGAYWGQGTTVTVSSVDLKSGGSTSGSGKPGSGEGSSGSAREIVLTQSPAIMSASPGQKVTITCSASSSVSYMHWYQQKSGTSPKRWIYDTSKLASGVPARFSGSGSGTSYSLIISSMEAEDAATYYCQQWRSNPPTFGGGTRLEIK
notes: mouse
- Kd [4]: 1.05 nM

B12: 31C3 scFv (scFv)
scFv: EVKLVETGPELKKPGETVKISCKASGYTFTNYGMNWVKQAPGKGLKWMGWINTNTGEPTYAEEFKGRFAFSLETSASTAFLQINNLKNEDTATYFCARGPIYYGTSYRFFDVWGTGTSVTVSSVDLKSGGSTSGSGKPGSGEGSSGSARQIVLTQSPAIMSASPGEKVTMTCRASSSVSSSYLHWYQQKPGSSPKLWIYSTSNLASGVPARFSGSGSGTSYSLTISRMEAEDAATYFCQQWSSFPPTFGGGTKLELK
notes: mouse
- Kd [4]: 5.27 nM

B13: 39D1.1 scFv (scFv, V domains shown)
VH: EVQLVQSGGNLVQPGGSLRLSCAATGPIGSHWMTWVRQAPGQGLEWVANINLDGTEKFYVDSVKGRFTVSRDNRKSSVFLQMNNLRVDDTAVYYCARLQWGGYDGWLSPWGQGTLVTVSS
VL: DIVMTQSPPSLSASVGDRVSLTCRASEYIGTSLNWYQQKPGKAPKLLIYAASALHSGVPSRFSGSGSGTDFTLTISGLQPEDFATYYCQQANDLPLTFGGGTKLEIK
- Kd [5]: 0.747 nM

B14: 41A4 scFv (scFv, V domains shown)
VH: EVQLVQSGGNLVQPGGSLRLSCAATGPIGSHWMTWVRQAPGQGLEWVANINLDGTEKFYVDSVKGRFTVSRDNRKSSVFLQMNNLRVDDTAVYYCARLQWGGYDGWLSPWGQGTLVTVSS
VL: DIVMTQSPPSLSASVGDRVSLTCRASEYIGTSLNWYQQKPGKAPKLLIYAASALHSGVPSRFSGSGSGTDFTLTISGLQPEDFATYYCQQTNDLPLTFGGGTKLEIK
- Kd [5]: 0.533 nM

B15: 41B7 scFv (scFv, V domains shown)
VH: EVQLVQSGGNLVQPGGSLRLSCAATGPIGSHWMTWVRQAPGQGLEWVANINLDGTEKFYVDSVKGRFTVSRDNRKSSVFLQMNNLRVDDTAVYYCARLQWGGYDGWLSPWGQGTLVTVSS
VL: DIVMTQSPPSLSASVGDRVSLTCRASEYIGTSLNWYQQKPGTAPKLLIYAASALHSGVPSRFSGSGSGTDFTLTISGLQPEDFATYYCQQANDLPLTFGGGTKLEIK
- Kd [5]: 0.892 nM
